Literature values, collected in article PMC10342495.

Target: IL-18 (Homo sapiens) (UniProt Q14116)
Sequence (Q14116 37-193): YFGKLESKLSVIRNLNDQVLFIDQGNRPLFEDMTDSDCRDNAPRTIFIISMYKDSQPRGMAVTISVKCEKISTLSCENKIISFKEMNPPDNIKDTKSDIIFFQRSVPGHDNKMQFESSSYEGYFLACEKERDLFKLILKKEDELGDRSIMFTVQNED

Sequence of IL-18BP (O95998 31-194): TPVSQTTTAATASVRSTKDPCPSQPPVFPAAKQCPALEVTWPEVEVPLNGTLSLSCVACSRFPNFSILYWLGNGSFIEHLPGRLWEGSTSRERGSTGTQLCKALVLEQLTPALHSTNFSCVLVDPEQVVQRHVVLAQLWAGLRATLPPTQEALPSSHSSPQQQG

IL-18BP (from UniProt O95998)
Kd: 0.4 nM
